Test results taken from patent publication US20050182242A1, “Global analysis of protein activities using proteome chips” (priority 2001, published 2005).

Experiments:
calmodulin = target: T1, calmodulin (Homo sapiens, UniProt P0DP23); assay: Yeast proteome chip probed with biotinylated calmodulin; format: binding; conditions: biotinylated calmodulin in the presence of calcium
T1 construct: purchased CalBiochem, USA
Text: To test for protein-protein interactions, the yeast proteome was probed with calmodulin (11). Calmodulin is a highly conserved calcium-binding protein involved in many calcium-regulated cellular processes and has many known physical partners (Hook et al., 2001, Annu. Rev. Pharmacol. Toxicol. 41:471). The calmodulin probe was biotinylated, and bound probe was detected using Cy3-labeled streptavidin. As a control, the yeast proteome was probed with Cy3-labeled streptavidin alone.
Generally, protein-protein interactions can be assayed as follows. Blocked proteome chips are washed three to five times in PBS buffer, and the extra liquid on the glass surface is removed by tapping the slides vertically on a KIMWIPE™. 200 ∞l of biotinylated protein probe is added to the proteome chip and immediately covered by a hydrophobic plastic cover slip (GRACE BIO-LABS™, USA). After trapped air bubbles are removed, the chip is incubated in a humidity chamber at room temperature (RT) for one hour. To remove the cover slip, the chip is immersed into large volume of PBS buffer (>50 ml), and the slip should float away. The chip is then moved to a second PBS bath (>50 ml) and washed 3×5 min with shaking at RT. After removing extra liquid on the surface of the chip, at least 150 μl of Cy3- or Cy5-conjugated streptavidin (PIERCE™, USA; 1:2000 to 1:4000 dilution) is added to the surface and covered by a hydrophobic plastic cover slip (GRACE BIO-LABS™, USA). The chip is incubated for greater than 30 min in the dark at RT. The chip is then washed as described above. To completely remove the liquid on the chip, the chip is spun to dryness at 1500-2000 rpm for 5-10 min at RT.
• 1. S. Fields, Y. Kohara, D. J. Lockhart, Proc. Natl. Acad. Sci. 96, 8825 (1999); A. Goffeau et al., Science 274, 563 (1996). • 2 P. Ross-Macdonald et al., Nature 402, 413 (1999); J. L., DeRisi, V. R. Iyer, P. O. Brown, Science 278, 680 (1997); E. A. Winzeler et al., Science 285, 901 (1999). P. Uetz et al., Nature 403, 623 (2000); T. Ito et al., Proc. Natl. Acad. Sci. USA. 97, 1143 (2000) • 3 H. Zhu, M. Snyder, Curr. Opin. Chem. Biol. 5, 40 (2001). • 4 M. R. Martzen et al., Science 286, 1153 (1999). • 5 H. Zhu et al., Nat. Genet. 26, 283 (2000). • 6 G. MacBeath, S. L. Schreiber, Science 289, 1760 (2000). • 7 A. Caveman, J. Cell Sci. 113, 3543 (2000). • 8 P. Arenkov et al., Anal. Biochem 278, 123 (2000). • 9 D. A. Mitchell, T. K. Marshall, R. J. Deschenes, Yeast 9, 715 (1993). The expression vector pEGH was created by inserting an RGS-HisX6 epitope tag between the GST gene and the polycloning site of pEG(KG). The yeast ORFs were cloned using the strategy described previously (5), except every step was done in a 96-well format. Plasmid DNAs confirmed by DNA sequencing were reintroduced into both yeast (Y258) and E. coli (DH5a). […] 0.1 mM calcium was present in buffers in all subsequent steps. The chip was washed three times with PBS at RT. Cy3-conjugated streptavidin (Jackson IR, USA) (1:5000 dilution) was added to the chip and incubated for 30 min at RT. After extensive washing, the chip was spun dry and scanned using a microarray scanner; the data was subsequently acquired with the GENEPIX™ array densitometry software (Axon, USA). • 12 S. S. Hook, A. R. Means, Annu. Rev. […]

RNA-polyA+ = assay: Yeast proteome chip probed with biotin-labeled polyA+ RNA; format: binding; conditions: Cy3-streptavidin
Text: Protein-DNA and protein-RNA interactions are important for many fundamental biological functions such as transcription regulation, chromosome segregation and maintenance, and RNA transport and processing (Williamson, 2000, Nat. Struct. Biol. 7(10):834-7). To explore the possibility of using a proteome chip to identify proteins that bind to DNA or RNA molecules, total yeast genomic DNA was labeled using Cy3-CTP and Klenow fragment, and polyA^+ was labeled using a biotinylated psoralen-derivative (31). Each probe was incubated with a different proteome chip (FIG. 3A).
The protein-nucleic acid interaction was assayed as follows. The nucleic acid robes were labeled as described by Winzeler et al. (1999, Science 285:901). Blocked proteome chips were washed three to five times in PBS buffer, and the extra liquid on the glass surface was removed by tapping the slides vertically on a KIMWIPE™. 200 μl of labeled nuclei acid probe ([…] poly(dC/dG); 100-300 mM NaCl; 50-300 mM HEPES, pH 7.0-8.5; 10 mM MgCl2) was added to the proteome chip and immediately covered by a hydrophobic plastic cover slip (GRACE BIO-LABS™, USA). After trapped air bubbles were removed, the chip was incubated in a humidity chamber in the dark at room temperature (“RT”) for one hour. To remove the cover slip, the chip was immersed into large volume of PBS buffer(>50 ml), so that the slip would float away. The chip was then moved to a second PBS bath (>50 ml) and washed 3×5 min with shaking in the dark at RT. To completely remove the liquid on the chip, the chip was spun to dryness at 1500-2000 rpm for 5-10 min at RT.
RNA-polyA^+ from exponentially growing cells was labeled with biotin and used to probe the proteome microarray. The positive signals were detected using Cy3-streptavidin. […] In addition to proteins that likely directly or indirectly interact with RNA, we found two transcription factors (Bur6p and Tos8p), one transcriptional silencer (Hst3p), six other proteins encoded by known ORFs, and seven proteins from uncharacterized ORFs.

B1: Dst1p: yeast protein with a role in transcription elongation (protein, UniProt P07273 1-309, looked up)
Transcription elongation …: MDSKEVLVHVKNLEKNKSNDAAVLEILHVLDKEFVPTEKLLRETKVGVEVNKFKKSTNVEISKLVKKMISSWKDAINKNKRSRQAQQHHQDHAPGNAEDKTTVGESVNGVQQPASSQSDAMKQDKYVSTKPRNSKNDGVDTAIYHHKLRDQVLKALYDVLAKESEHPPQSILHTAKAIESEMNKVNNCDTNEAAYKARYRIIYSNVISKNNPDLKHKIANGDITPEFLATCDAKDLAPAPLKQKIEEIAKQNLYNAQGATIERSVTDRFTCGKCKEKKVSYYQLQTRSADEPLTTFCTCEACGNRWKFS
calmodulin binding (calmodulin): identified

B2: Smd1p: U1 snRNP component (protein, UniProt Q02260 1-146, looked up)
Small nuclear …: MKLVNFLKKLRNEQVTIELKNGTTVWGTLQSVSPQMNAILTDVKLTLPQPRLNKLNSNGIAMASLYLTGGQQPTASDNIASLQYINIRGNTIRQIILPDSLNLDSLLVDQKQLNSLRRSGQIANDPSKKRRRDFGAPANKRPRRGL
binding of polyA+ RNA probe (RNA-polyA+): identified

B3: Cmp2p: one of the two yeast calcineurins (protein)
chain: MSSDAIRNTEQINAAIKIIENKTERPQSSTTPIDSKASTVAAANSTATETSRDLTQYTLDDGRVVSTNRRIMNKVPAITSHVPTDEELFQPNGIPRHEFLRDHFKREGKLSAAQAARIVTLATELFSKEPNLISVPAPITVCGDIHGQYFDLLKLFEVGGDPATTSYLFLGDYVDRGSFSFECLIYLYSLKLNFNDHFWLLRGNHECKHLTSYFTFKNEMLHKYNLDIYEKCCESFNNLPLAALMNGQYLCVHGGISPELNSLQDINNLNRFREIPSHGLMCDLLWADPIEEYDEVLDKDLTEEDIVNSKTMVPHHGKMAPSRDMFVPNSVRGCSYAFTYRAACHFLQETGLLSIIRAHEAQDAGYRMYKNTKTLGFPSLLTLFSAPNYLDTYNNKAAILKYENNVMNIRQFNMTPHPYWLPDFMDVFTWSLPFVGEKVTEMLVAILNICTEDELENDTPVIEELVGTDKKLPQAGKSEATPQPATSASPKHASILDDEHRRKALRNKILAVAKVSRMYSVLREETNKVQFLKDHNSGVLPRGALSNGVKGLDEALSTFERARKHDLINEKLPPSLDELKNENKKYYEKVWQKVHEHDAKNDSK
modifications: left off: a dimerising Fc or GST
notes: one of the two yeast calcineurins
calmodulin binding (calmodulin): identified

B4: Hst3p: transcriptional silencer (protein, UniProt P53687 1-447, looked up)
NAD-dependent histone …: MTSVSPSPPASRSGSMCSDLPSSLQTEKLAHIIGLDADDEVLRRVTKQLSRSRRIACLTGAGISCNAGIPDFRSSDGLYDLVKKDCSQYWSIKSGREMFDISLFRDDFKISIFAKFMERLYSNVQLAKPTKTHKFIAHLKDRNKLLRCYTQNIDGLEESIGLTLSNRKLPLTSFSSHWKNLDVVQLHGDLKTLSCTKCFQTFPWSRYWSRCLRRGELPLCPDCEALINKRLNEGKRTLGSNVGILRPNIVLYGENHPSCEIITQGLNLDIIKGNPDFLIIMGTSLKVDGVKQLVKKLSKKIHDRGGLIILVNKTPIGESSWHGIIDYQIHSDCDNWVTFLESQIPDFFKTQDQIKKLRQLKREASDLRKQMKAQKDSIGTPPTTPLRTAQGIDIQGNNELNTKIKSLNTVKRKILSPENSSEEDEEENLDTRKRAKIRPTFGDNQAS
binding of polyA+ RNA probe (RNA-polyA+): identified

B5: Tos8p: yeast transcription factor suggested to be involved in RNA splicing and processing (protein, UniProt P53147 1-276, looked up)
Homeobox protein TOS8: MGTSIVNLNQKIELPPIQVLFESLNRENETKPHFEERRLYQPNPSFVPRTNIAVGSPVNPVPVSSPVFFIGPSPQRSIQNHNAIMTQNIRQYPVIYNNNREVISTGERNYIITVGGPPVTSSQPEYEHISTPNFYQEQRLAQPHPVNESMMIGGYTNPQPISISRGKMLSGNISTNSVRGSNNGYSAKEKKHKAHGKRSNLPKATVSILNKWLHEHVNNPYPTVQEKRELLAKTGLTKLQISNWFINARRRKIFSGQNDANNFRRKFSSSTNLAKF
binding of polyA+ RNA probe (RNA-polyA+): identified
